Source: article PMC7721705 (2020)

B1: native CXCR4 with C-terminal GSSG linker and rho1D4 tag (receptor)
chain: MEGISIYTSDNYTEEMGSGDYDSMKEPCFREENANFNKIFLPTIYSIIFLTGIVGNGLVILVMGYQKKLRSMTDKYRLHLSVADLLFVITLPFWAVDAVANWYFGNFLCKAVHVIYTVNLYSSVLILAFISLDRYLAIVHATNSQRPRKLLAEKVVYVGVWIPALLLTIPDFIFANVSEADDRYICDRFYPNDLWVVVFQFQHIMVGLILPGIVILSCYCIIISKLSHSKGHQKRKALKTTVILILAFFACWLPYYIGISIDSFILLEIIKQGCEFENTVHKWISITEALAFFHCCLNPILYAFLGAKFKTSAQHALTSVSRGSSLKILSKGKRGGHSSVSTESESSSFHSS
B2: CXCR4^QTY29 with C-terminal GSSG linker and rho1D4 tag (receptor)
chain: MEGISIYTSDNYTEEMGSGDYDSMKEPCFREENANYNKTFLPTIYSIIYQTGTVGNGLVILVMGYQKKLRSMTDKYRLHLSTADLQFVTTLPYWATDATANWYFGNFLCKAVHVIYTVNLYSSVLILAFISLDRYLAIVHATNSQRPRKLLAEKVVYVGVWTPAQLLTTPDYTFANVSEADDRYICDRFYPNDLWVVVFQFQHIMVGLILPGIVILSCYCIIISKLSHSKGHQKRKALKTTTTLIQAFFACWQPYYTGISIDSYILLEIIKQGCEFENTVHKWISTTEAQAFYHCCTNPTQYAYLGAKFKTSAQHALTSVSRGSSLKILSKGKRGGHSSVSTESESSSFHSS

Key:
CXCL12 (SDF1α) [1] = biological target: T1, CXCL12 (SDF1α) (UniProt P48061-2 22-89); experiment: SPR; low-activity fraction (kd1)
T1 sequence (P48061 22-89): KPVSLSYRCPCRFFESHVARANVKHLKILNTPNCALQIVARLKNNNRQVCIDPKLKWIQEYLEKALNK

CXCL12 (SDF1α) [2] = biological target: T1, CXCL12 (SDF1α); experiment: SPR; high-activity fraction (kd2)
CXCL12 (SDF1α) [3] = biological target: T1, CXCL12 (SDF1α); experiment: SPR; low-activity fraction (KD1, heterogeneous ligand model)
CXCL12 (SDF1α) [4] = biological target: T1, CXCL12 (SDF1α); experiment: SPR; high-activity fraction (KD2, heterogeneous ligand model)

Binder	koff (CXCL12 (SDF1α) [1]) [s⁻¹]	koff (CXCL12 (SDF1α) [2]) [s⁻¹]	Kd (CXCL12 (SDF1α) [3]) [nM]	Kd (CXCL12 (SDF1α) [4]) [nM]
B1	0.0375	0.00159	437	56.3
B2	0.0356	0.00171	1660	29
